Results: PMC7642358 (Nature Communications, 2020)

What was measured:
[1] = target: T1, SARS-CoV-2 spike receptor-binding domain (2019-nCoV RBD-SD1, residues 319–566) (SARS-CoV-2, UniProt P0DTC2); experiment: BLI; conditions: both partners purified
[2] = target: T1, SARS-CoV-2 spike receptor-binding …; experiment: thermal shift (nanoDSF); conditions: both partners purified

B1: sybody 95 (Sb95) (VHH)
VHH: QVQLVESGGGSVQAGGSLRLSCAASGNIYNIKYLGWFRQAPGKEREGVAALMTRYGETYYADSVKGRFTVSLDNAKNTVYLQMNSLKPEDTALYYCAAASYGANWPLVSAAYTYWGQGTQVTVS
notes: source: E. coli MC1061 F-, periplasmic extract, purified (Ni-NTA, desalted in PBS)
- Kd [1]: 43.9 nM

B2: sybody 23 (Sb23) (VHH)
VHH: QVQLVESGGGLVQAGGSLRLSCAASGFPVESENMHWYRQAPGKEREWVAAIYSTGGWTLYADSVKGRFTISRDNAKNTVYLQMNSLKPEDTAVYYCAVQVGYWYEGQGTQVTVS
notes: as for B1
- increase of the melting temperature of RBD [2]: ~10 degrees
- Kd [1]: 10.6 nM

B3: sybody 76 (Sb76) (VHH)
VHH: QVQLVESGGGLVQAGGSLRLSCAASSFPVDTYHMAWYRQAPGKEREWVAAIVSWGWRTYYADSVKGRFTISRDNAKNTVYLQMNSLKPEDTAVYYCNVKDIGAQEVHYDYWGQGTQVTVS
notes: as for B1
- Kd [1]: 58.1 nM
